Here are results for 2 molecules from publication PMC2121072 (The Journal of Cell Biology, 1996).

Assay [1] has as its system protease-resistant module of hDlg containing PDZ domains 1 and 2. Conditions: ref Lue et al., 1995 [Abstract #1557]; cited from earlier work.
The test system of assay [2] is three PDZ domains of hDlg. To be noted: ref Lue et al., 1994; cited from earlier work.
For the next assay, the system named is PDZ 1+2 module. Nature of the assay: Blot overlay assay. It counts as binding, human. Conditions: data not shown.
The target in a further assay is GST-hDlg fusion protein (Homo sapiens, UniProt Q12959). Nature of the assay: Binding of ezrin / PTP-H1 to GST-hDlg. Conditions: PTP-H1 expressed in baculovirus system; data not shown.

B1: protein 4.1: native protein 4.1 isolated from human RBCs (protein, UniProt P11171 1-864, looked up)
Protein 4.1: MTTEKSLVTEAENSQHQQKEEGEEAINSGQQEPQQEESCQTAAEGDNWCEQKLKASNGDTPTHEDLTKNKERTSESRGLSRLFSSFLKRPKSQVSEEEGKEVESDKEKGEGGQKEIEFGTSLDEEIILKAPIAAPEPELKTDPSLDLHSLSSAETQPAQEELREDPDFEIKEGEGLEECSKIEVKEESPQSKAETELKASQKPIRKHRNMHCKVSLLDDTVYECVVEKHAKGQDLLKRVCEHLNLLEEDYFGLAIWDNATSKTWLDSAKEIKKQVRGVPWNFTFNVKFYPPDPAQLTEDITRYYLCLQLRQDIVAGRLPCSFATLALLGSYTIQSELGDYDPELHGVDYVSDFKLAPNQTKELEEKVMELHKSYRSMTPAQADLEFLENAKKLSMYGVDLHKAKDLEGVDIILGVCSSGLLVYKDKLRINRFPWPKVLKISYKRSSFFIKIRPGEQEQYESTIGFKLPSYRAAKKLWKVCVEHHTFFRLTSTDTIPKSKFLALGSKFRYSGRTQAQTRQASALIDRPAPHFERTASKRASRSLDGAAAVDSADRSPRPTSAPAITQGQVAEGGVLDASAKKTVVPKAQKETVKAEVKKEDEPPEQAEPEPTEAWKVEKTHIEVTVPTSNGDQTQKLAEKTEDLIRMRKKKRERLDGENIYIRHSNLMLEDLDKSQEEIKKHHASISELKKNFMESVPEPRPSEWDKRLSTHSPFRTLNINGQIPTGEGPPLVKTQTVTISDNANAVKSEIPTKDVPIVHTETKTITYEAAQTDDNSGDLDPGVLLTAQTITSETPSSTTTTQITKTVKGGISETRIEKRIVITGDADIDHDQVLVQAIKEAKEQHPDMSVTKVVVHQETEIADE
Consider B1, for which, in assay [1], the “binding to protease-resistant module” value was “binds”. For the same molecule, the “affinity for three PDZ domains vs 4.1B (I3) domain” value in assay [2] is “significantly lower affinity”. The “binding of protein 4.1 to PDZ 1+2 module” value with PDZ 1+2 module is given as “no binding”.

B2: PTP-H1: tyrosine phosphatase expressed in the baculovirus expression system (protein)
chain: MTSRLRALGGRINNIRTSELPKEKTRSEVICSIHFLDGVVQTFKVTKQDTGQVLLDMVHNHLGVTEKEYFGLQHDDDSVDSPRWLEASKAIRKQLKGGFPCTLHFRVRFFIPDPNTLQQEQTRHLYFLQLKMDICEGRLTCPLNSAVVLASYAVQSHFGDYNSSIHHPGYLSDSHFIPDQNEDFLTKVESLHEQHSGLKQSEAESCYINIARTLDFYGVELHSGRDLHNLDLMIGIASAGVAVYRKYICTSFYPWVNILKISFKRKKFFIHQRQKQAESREHIVAFNMLNYRSCKNLWKSCVEHHTFFQAKKLLPQEKNVLSQYWTMGSRNTKKSVNNQYCKKVIGGMVWNPAMRRSLSVEHLETKSLPSRSPPITPNWRSPRLRHEIRKPRHSSADNLANEMTYITETEDVFYTYKGSLAPQDSDSEVSQNRSPHQESLSENNPAQSYLTQKSSSSVSPSSNAPGSCSPDGVDQQLLDDFHRVTKGGSTEDASQYYCDKNDNGDSYLVLIRITPDEDGKFGFNLKGGVDQKMPLVVSRINPESPADTCIPKLNEGDQIVLINGRDISEHTHDQVVMFIKASRESHSRELALVIRRRAVRSFADFKSEDELNQLFPEAIFPMCPEGGDTLEGSMAQLKKGLESGTVLIQFEQLYRKKPGLAITFAKLPQNLDKNRYKDVLPYDTTRVLLQGNEDYINASYVNMEIPAANLVNKYIATQGPLPHTCAQFWQVVWDQKLSLIVMLTTLTERGRTKCHQYWPDPPDVMNHGGFHIQCQSEDCTIAYVSREMLVTNTQTGEEHTVTHLQYVAWPDHGVPDDSSDFLEFVNYVRSLRVDSEPVLVHCSAGIGRTGVLVTMETAMCLTERNLPIYPLDIVRKMRDQRAMMVQTSSQYKFVCEAILRVYEEGLVQMLDPS
B2: the “interaction with GST-hDlg” value with GST-hDlg fusion protein is “no interaction”.
